Measured values: the domain aggregation screens of Martell et al. (2025)

Assay: soluble fraction after stress (log2 fold change); higher = more stays soluble; pooled small domains, quantitative proteomics
Conditions: stress: 50 degC
How it was run: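 After stress at 50°C, the amount of each protein still soluble was measured. This was done on pooled custom libraries of small protein domains, using high-throughput quantitative proteomics. The figure given is a base-two log fold change and stands for aggregation propensity, with higher values meaning more protein stays in solution.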

Sequence	soluble fraction (log2)
HMEKLLTTRQSQIFELAKRKGYWNIPREISITQLAQLTGSSKSTISVMLHAIESKIVDTFYDEI	-3.2
HMEKVTPEMIAEYNALAKKYNSNPEVVFKKKEIQRLKYIYSLMSEKQKETAEVFPNIPPPPPT	-0.234
HMEAVIGGIYRHYKGNNYKLLAVATHSETLEKMAVYQALYGEMGIWVRPLAMFMETIEKDGQSLKRFE	-1.78
HMTPKVDLTVAEDGSASAVIAGLRVEIDAAGKVTAVAPADGTTDLSSVAPEAVKEAMDNALAAYTASKG	0.0555
HMQGLIGEQKAIQIALSRVPGAKPEHVRELKLDYDDGMQLYEGEIFYNFREYEFEINAVTGEVVGWEI	-1.6
HMPINPKVKQIYDTLKDGGADVGSEKEFNDYFFAKGKDGYNNRKEVFNTLREGGADAGKSYEEFAGWLGL	0.362
HMIGILSDREAEILALLDEGLTNKAIGRRLNLAEPTVKFHLKNLYAKLGVGRRQLAVNVAKGSGLLNSD	-0.699
HMIIIMKMGADESQVQETIKRIKDLGFNTHLSKGENRTIIGVIGDVSSIDESDVERLRATPYIAEVVRVS	0.0267
HMSTLTGTQRAAVVLMQMSPPNAARVMAQFTDAEAEEIAAEIVRLRKVDPEVAEQIMKDFHEAALSS	-0.252
HMATETELNLQLMRIIDELHTDHNTWGSRKITDYLRLQGYEINRKRIQRLMDVMDIQVVYPK	-1.98
HMKEVDSESAFAERGISEVWIPALQKMGILTLEALDAANPNKVFNDLGGMRKKLKIDAAMPTKDEVTAWIQ	0.0238
HMYDEKTLRKAVLDYVRDNDDGRLDLMKIDSYLTSRYGNIDYAALGYNRLSMFISSFPELRRNSNYVTLRK	-0.164
HMDTGPISGQVEADRVEVHGHLDGKISAQNVVVGQTGVVKGDIEFGENLRTEEGADIEGYIK	-0.149
HMVDKTMYDRYAVDDYVRVIDGPLVGTEGRIIELDRETGNVKIEAVFFGRVTTADINFALIEKVD	0.0531
HMFDKNKPVVVEGENAEVALKKVSKYFNVPTEKLDYTLLGQKSAGLLGIGSKVYQFKVWLKREIP	0.396
HMNEKLNEYLNQVKAYLNTSDNKEDIIKELEAVVLEKAEKKYGQITDESISKILSEFGSPAEVAKEYS	0.129
HMSTTILSFQNRVVIETLHNEGRSLRYIANYLGFSKATIFNELHRLNSEYRAELAQADFERKVSQR	-3.59
HMDEYILTLDEVKELLKSKDYDDLKNVLKWSNKFQKDTIIQTAISEKVSDANVINIIKEITGQDITSLIV	0.0322
HMNKIENLSQTILNILRKDHSQAFNYKQIAAKLQLDDPSSRNQIVKKLKDLQGKGTIQEIERGKYILTP	0.358
HMNQDMINFDKLSVRLKNVLIENNLKTVDSLLNYPAEEFEYLTNLGEKTLQELLTYRNELAASNNIQ	-0.289
HMSEISAEAGKRIRYFRKSRSMTLEELAAVIHKSKATLSKYETGEISIDLDTLYDLAVALQVRAEQLLPAS	-2.29
HMAKSMRHLIVPSRETSLWRDKLSTNGWLSKGYGIHNLDDYRGIPLNETAPKIIEGLEITELEPIS	0.0863
HMDLVIALNSRIRVIREPFFGKLGTVIDLPHKLHKMESGTMTRVAKIKFDDRTEEIIPRTNLEVILS	-2.69
HMNKEQIASNIAEARKRSGLNQSELARRLGIRPQSVQQWEKGTATPKLDRLTAIAQVLGVSLESLTG	-0.0259
HMPVGVPGVVYNTDSLNVRKGAGTNYDIVSKLKRGSVIEVLEQTAVDGTVWGRIAEGWVNMEYVSL	-0.43

Sequence	soluble fraction (log2)
HMSYTAYLSQELGDMSREIQSELLKKGYNGSSSFTIVRTYMGSSVKFSVYNANNGELITSKTINM	-1.93
HMQHRSRALHLQEELVRRYYDQAIAPFMIFWEMKANVTLDQLKELRAVVSPSLNEHPYTKQLDEYIRLAE	-0.505
HMAPVLTATVNTTSGKLNMRAAASATSAKLTSIPRGATVTVLEKGTTWSRISYGGYTGYVMTQYLKFD	-0.167
HMTENLELLATGSLWTEPDGSGKIISYLIPGLRVKKLETNGIFYKIQLQNGLIGWADQSLFTIAEPK	-0.0642
HMHAQDTLMTRAGETRTVKILEIGLEEIKYRIWGLDDSPVIVIDKIDVKQIVFSNGEKMTIVQ	-1.44
HMDESLLDYALREIKARIQNGTYPPGTKLSTQEISDSLGISRTPVVAAINRLVAQGVAEAIPRRGTIVAR	0.0188
HMGYDDVIVINGKNETYGFPTKVEDDPVLSLVIKGDRSIDYAEERRLFYVAMTRTKNRVFFVAP	0.0138
HMLILTWNYPYEYPMMMRSFLQEIGISRTFLAHIKSNGELLINGRHEIVLKTLQPGDVLTMVIPPSG	-1.71
HMGLGDLEVVDSIGKIRRDGQQMILAFGRHKGRDVQEVYNEDPRYINWLLSPKGIEDENGRGKVRDYLGIN	0.163
HMRVEEVGYGEFLQMAEERDLAEVQVTDTEIIFSDKDTPPNYYKTGRMDDPFLVDRLYSAGIRDFGE	-0.298
HMEEKKYEVGDVVSFNYLYKNSFAEGKVSSLIHSGTITRIIDGRPAPYLINRGTGWLSNDLILT	-0.958
HMAAINPSALREPATPPEQLSAGDSVLHPRFGRGEILELQQQGGDPRAIVQFINEPKPRTLVLRYAQLRK	-0.049
HMTTVDYDALRAAILQQVVSEDTTPALTTENTEIKYKFKFGLDTWVDLDGGKIAPAVSAKSYEIQISFKG	0.132
HMDSSLVWVDYLLGSKLTKLNSSNELTGPGASAKTIGAFLGENKQSFDLYIESVHNARDTYSDILTHGT	-0.0043
HMKQNSDDGEIRKIIIEILDNNLDNVNKYKSGRTNVLDFFVGQVMKQTRGQANPELTRSILTEELSN	0.0594
HMGTRHPLPYAFAKAHTVLLEDDGDRLLLHAAENSGPSALGEILRLYDVDALERETASTLANRIAVAYAG	0.00932
HMPSARELLATNIVRLRKEKGWSQEDLALEAGLHRTFVAHVERHARNISLDNIERLANALQVNVHILLL	-3.79
HMLETHRRRQIILSLLRESGMLDVDEVAARLVVSPNTIRNDFNALAAEGLLRRIRGGATLAEP	-0.349
HMLERKFGTSLEIKSLSKFLIENNYKKNAKYLNKLIQVLGTRSENRIIKTFFKQFPEIENIFRNQL	-0.846
HMHITSFTIKQADQIVGTTPVREQAVGAAKARAQQTGTPVSVIAYLDTGEEREVIIHPDGTN	0.324
HMVPVQLTPRELQVARLAAHGASSPEIAAELRVSRRTVDNQLGRVYAKLGIAGRAELAAALSRLPVSV	-0.0808
HMNMYTVTGRLVDQDGVPQANALVTIDSSSQQTRTSPQGFYLIKVFGTEPSTIKFLVDGYDPQIVNFTP	-0.21
HMRTAKEVFYKELKGYMQNGDELSVKKIYSLFPEINPKTVSWRLHELVQHGKIHRTGHGYYALTQ	-1.07
HMDYQEVEFEKLGKEILTKILLDINKKATKKTLKILIDGFNYDSYRSFYIAIGKAQISSDSILELLQH	-0.622
HMNVPYEMVTQNGEVFYKYKVQPGEGVFAVSRTFSVSVAEILRVNPEANKGLKNGQVLLIPVPKDMIA	0.0163

Sequence	soluble fraction (log2)
HMSTIAAMADPRAWALEMLGFPPGTVKPSKREIQVRFRESLRDVHPDHGGDSRTASASINDLSEARRVLLS	-0.188
HMAVTKVKVITESSNLNIRKGPGTDQPIVGKAAHHEIITLVNKSNDQWWLVRTNDGEEGYSYSRYLEPVT	-0.39
HMVEVTTDEITRPGAMVSGSVTFSDGVKAIWLIDEYGRPGLEPETPGYQPSESDLSEFEKHLRALLQ	0.0647
HMNSVYTPDPKELAKAIKIVTAAREAEQKGQGVIAVDGRMVDAPVVSQALRILELARLAGMEVSE	0.0244
HMNITFAENIKQFRKAKSMSMEELGKRLGKAKSSISAWENGKRTPKINELKSISEALGVTISQLLGF	-1.13
HMYEGLILINKYDSLVSAKLETNKIKSLGLFFEDMEEKIAVFSGPFKNNDINLKLDFLIRNGYLDAKIY	-4.51
HMEKRRQEIVELVKRESEISFAELKQHFPEVSEVTLRKDLKYLDSTLQIIRIHGGAKSLPAAI	-0.362
HMASRTLSYSEFMSRVDSGDVTSVTLDGERIIMRTSNNQEFLSIKPEGEDISERLLAKNIEVRAEAQQ	-0.284
HMSMISLPNFVGKDIETVKAWAKENGITLIINKVEDSAKKDTVISQNPTNSDYSKILKGSAFTVNIAKE	0.0206
HMRKPDLTSVRTLIRSVSKLARHLKISPNGIYRWISVNRIPGAHVVKVANYYDVEIRDLVHLTGSD	-1.39
HMINVGYKFKQIRENAGLTLKQVSAMSGLSVSFISQIERGVVDPSWSSLKKISAALNIKLKDLF	-1.78
HMPEAITLRDLKTYSKQAASGYLDDHQLVLVEKEAHSEDVPEGQVIKQKPGAGASVKPGDKVEVTFSLGPE	0.0136
HMATHGRRAVIELREKIVSGELPGGTRLFEVSLAETLDISRTPVREALSRLAEEGLLDRLPNGGFVVRR	-0.503
HMNNDSQYLATLQRYYAEHRVLPSYARMLPLLGFASKAAVKKVLERLEVVGMLERTEDGDWAPSERFFER	-1.7
HMPENESPEEKHARFRRFAEGLMARLDENESVRDILPELKVWLDDRELDRDDQRLARNLMLTAGKRE	0.0802
HMQLTDLSALEAIIKEVLAANPKSVEDYKSGKEKAFGSLVGQAMKATKGKANPETVNSLLRKNLN	0.519
HMGFTDREREIIRNDLVATGRELFGTFGLKKTSIEDLTKAVGIAQGSFYTFFNSKEELYLEVMDREGEA	-0.851
HMKGALQIAIEEGFNWNLDKKYWNIVQSTVIAKRLGLKTTSGLKEAIEGMGGEYKRTKKARGYLVPTFKD	-2.31
HMLKKRKPMSGVGVIVKGMLTGTVTGTDGSYALKARPNDELSFSFLGYKTQEVFVGSKSTIDITLVDEA	-0.13
HMDSADADLLRRIEDLLSSRRSVIREARLADMLGVPRDQVARALDLLQERGVIGLTTDSGMKRIAFRRN	-0.0756
HMTYSAFITARNKRIAEEYSVLLDSLNISNNVIYRLGSWVVEVNVSDHSRAIDEIYSYERSGRIDKV	-0.498
HMLGAGFDSDLTARENIFLNGALLGHSRAVMRGYYDDIVNFAELHDFMDVPVKNFSSGMTSRLAFSIATIG	0.00802
HMAPKRIVLRFGKDISDKPIIYYLVKDYDLVINILKANVNPNKEGTLVLELSGENYDKGIEFLISQGVTVQ	-1.56
HMQNYLLFEEAKNIVNTLNLTNEKDWSEFIKKDFTYKNQIPIFPNQYYKHKGWVDWNDWLGINK	-1.56
HMSKPVVWIVGDSTVSAFTDNYYYPRYGWGTQIDKYLDGTFEVKNIALSGRSSTSYTADKEYGELIAG	0.0416
